Results on 1 substance are retold here after publication PMC11623273.

This assay addresses Fab fragment of neutralizing antibody HCV1.

Chain of Fab fragment of neutralizing antibody HCV1 (heavy, as listed by the source, chain 1 of 2): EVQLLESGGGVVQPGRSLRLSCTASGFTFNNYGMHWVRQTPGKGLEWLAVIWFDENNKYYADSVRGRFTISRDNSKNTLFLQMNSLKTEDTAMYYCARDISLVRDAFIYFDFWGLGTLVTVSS
Chain of Fab fragment of neutralizing antibody HCV1 (light, as listed by the source, chain 2 of 2): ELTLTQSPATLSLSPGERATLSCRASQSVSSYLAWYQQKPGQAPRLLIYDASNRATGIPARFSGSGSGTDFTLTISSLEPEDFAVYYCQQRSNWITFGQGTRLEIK
Chain of soluble HCV E2 ectodomain (sE2) (domain or fragment) (Q99IB8 384-719): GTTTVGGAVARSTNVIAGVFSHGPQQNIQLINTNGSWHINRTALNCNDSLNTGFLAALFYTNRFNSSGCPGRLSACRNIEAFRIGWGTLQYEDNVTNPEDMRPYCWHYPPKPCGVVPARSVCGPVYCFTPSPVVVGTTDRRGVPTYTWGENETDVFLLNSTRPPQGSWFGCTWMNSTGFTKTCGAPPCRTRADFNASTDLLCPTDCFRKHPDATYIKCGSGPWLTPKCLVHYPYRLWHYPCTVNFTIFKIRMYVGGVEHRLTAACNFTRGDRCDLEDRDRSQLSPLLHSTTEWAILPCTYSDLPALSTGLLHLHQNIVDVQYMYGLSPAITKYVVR

On to “soluble HCV E2 ectodomain (sE2) (domain or fragment)”, for which the Kd came to 294 nM, the koff stood at 0.00435 s⁻¹ and the kon was found to be 14800 M⁻¹ s⁻¹.
